In patent publication US20250215089A1 (HARBOUR BIOMED SHANGHAI, published 2025):
Where “and” joins values, the source holds several entries; their conditions need not be identical. Equal entries are not always repeated. Where two headings read alike, the source gives them in different places.

What was measured:
human PD-L1 [1] = molecular target: T1, human PD-L1 (human, UniProt Q9NZQ7 19-290); assay: FACS, CHO-K1/hPD-L1 cells
T1 construct: whole, on cells; also called hPD-L1; CD274
Description: Specifically, the cells expressing PD-L1 were digested and resuspended in PBS buffer containing 2% BSA. The cells were adjusted to a cell density of 1×10⁶ cells/mL, respectively. The cells were seeded in a 96-well V-bottom plate (Corning, #3894) at 100 μL/well, and the antibody to be tested at 2×final concentration with 4-fold concentration gradient dilution was then added at 100 μL/well. The cells were incubated at 4° C. for 2 hours in the dark. After the incubation, the cells were rinsed twice by adding pre-chilled PBS containing 2% BSA at 100 μL/well, and centrifuged at 500 g at 4° C. for 5 minutes, and the supernatant was discarded. […] The cells were washed twice by adding pre-chilled PBS containing 2% BSA at 100 µL/well, and centrifuged at 500 g at 4° C. for 5 minutes, and the supernatant was discarded. Finally, the cells were resuspended in pre-chilled PBS buffer containing 2% BSA at 200 μL/well. The fluorescence signal values were read using a BD FACS CANTOII flow cytometer or ACEA NovoCyte flow cytometer, and the data were processed and analyzed using FlowJo v10 software (FlowJo, LLC).
(§1) Data processing and graphical analysis were performed using GraphPad Prism 8 software. The binding curve of the antibody to the target cell and parameters, such as EC₅₀ value were obtained by four-parameter nonlinear fitting.

human PD-L1 [2] = molecular target: T1, human PD-L1; assay: cell-based or functional assay
human CD40 [3] = molecular target: T2, human CD40 (human, UniProt P25942 21-277); assay: FACS, Raji cells
T2 construct: whole, on cells; also called hCD40; TNFRSF5
Description: The cells were incubated at 4° C. for 1 hours in the dark. After the incubation, the cells were rinsed twice by adding pre-chilled PBS at 100 μL/well, and centrifuged at 500 g at 4° C. for 5 minutes, and the supernatant was discarded. Then, a fluorescent secondary antibody (goat anti-human IgG (H+L) secondary antibody, Alexa Fluor® 488 conjugate, Invitrogen, #A11013, 1:1000 dilution) was added at 100 μL/well, and the cells were incubated at 4° C. for 30 minutes in the dark. The cells were washed twice with pre-chilled PBS at 200 μL/well, and centrifuged at 500 g at 4° C. for 5 minutes, and the supernatant was discarded. Finally, the cells were resuspended in pre-chilled PBS at 200 μL/well. The fluorescence signal values were read using a BD FACS CANTOII flow cytometer or ACEA NovoCyte flow cytometer, and the data were processed and analyzed using FlowJo v10 software (FlowJo, LLC).
as §1

human CD40 [4] = molecular target: T2, human CD40; assay: cell-based or functional assay
human CD40 [5] = molecular target: T2, human CD40; assay: cell-based or functional assay; remark: listed apart in the source

T1 sequence (Q9NZQ7 19-290): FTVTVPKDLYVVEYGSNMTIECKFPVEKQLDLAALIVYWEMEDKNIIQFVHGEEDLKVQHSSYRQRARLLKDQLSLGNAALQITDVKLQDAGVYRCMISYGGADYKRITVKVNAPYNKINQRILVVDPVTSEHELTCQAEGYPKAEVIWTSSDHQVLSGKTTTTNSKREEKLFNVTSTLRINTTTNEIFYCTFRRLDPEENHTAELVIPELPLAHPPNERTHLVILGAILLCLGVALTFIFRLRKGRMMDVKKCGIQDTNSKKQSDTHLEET
T2 sequence (P25942 21-277): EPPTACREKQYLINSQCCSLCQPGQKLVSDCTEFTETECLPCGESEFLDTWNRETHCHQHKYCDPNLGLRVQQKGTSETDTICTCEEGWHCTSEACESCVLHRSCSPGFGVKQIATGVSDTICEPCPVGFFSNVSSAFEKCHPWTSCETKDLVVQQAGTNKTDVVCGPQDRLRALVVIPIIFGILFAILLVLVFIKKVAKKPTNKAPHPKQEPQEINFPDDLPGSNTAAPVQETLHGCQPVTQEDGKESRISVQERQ

| Binder | EC50 (human PD-L1 [1]) | Maximum MFI (human PD-L1 [1]) [MFI] | EC50, Jurkat-NFAT-hPD1 reporter (human PD-L1 [2]) [nM] | Maximum (RLU), Jurkat-NFAT-hPD1 reporter (human PD-L1 [2]) [RLU] | EC50 (human CD40 [3]) [nM] | Maximum MFI (human CD40 [3]) [MFI] | other results |
| --- | --- | --- | --- | --- | --- | --- | --- |
| PR000960 (antibody, human IgG1, V domains shown, Fully human heavy-chain-only antibody (HCAb): VH fused to human IgG1 Fc; no light chain) VH: QVQLVESGGGVVQPGMSLRLSCAASGFNFSNYGMYWVRQAPGKGQEWVAIIWYDGTKKHYADSVKGRFTISRDNSKNTLYLEMNSLRVEDTAVYYCAKNRAIFGVVPDASDIRGQGTMVTVSS | 0.79 nM | 23700 | 0.31 | 18400 |  |  |  |
| PR002082 (antibody, human IgG1, V domains shown, HCAb; PTM variant of PR000960 (N28T, N31S); human IgG1 Fc; no light chain) VH: QVQLVESGGGVVQPGMSLRLSCAASGFTFSSYGMYWVRQAPGKGQEWVAIIWYDGTKKHYADSVKGRFTISRDNSKNTLYLEMNSLRVEDTAVYYCAKNRAIFGVVPDASDIRGQGTMVTVSS | 0.86 nM and 1.31 nM |  | 0.217 | 12100 |  |  |  |
| PR006248 (antibody, human IgG1, V domains shown, HCAb; human IgG1 Fc; no light chain) VH: QVQLVESGGGVVQPGMSLRLSCAASGFDFSSYGMYWVRQAPGKGQEWVASIRYTGTEKHYADSVKGRFTISRDNSKNTLYLEMNSLRVEDTAVYYCAKNRALFGVIPDDSDIRGQGTMVTVSS | 0.606 nM | 404000 | 0.121 | 14100 |  |  |  |
| PR005878 (antibody, human IgG1, V domains shown, HCAb; human IgG1 Fc; no light chain) VH: QVQLVESGGGVVQPGMSLRLSCAASGFTFSSYGMYWVRQAPGKGQEWVASIRYTGTEKHYADSVKGRFTISRDNSKNTLYLEMNSLRVEDTAVYYCAKNRALFGVIPDDSDIRGQGTMVTVSS | 1.08 nM | 419000 | 0.166 | 13400 |  |  |  |
| PR006245 (antibody, human IgG1, V domains shown, HCAb; human IgG1 Fc; no light chain) VH: QVQLVESGGGVVQPGMSLRLSCAASGFDFSSYGMYWVRQAPGKGQEWVASIRYTGTEKHYADSVKGRFTISRDNSKNTLYLEMNSLRVEDTAVYYCAKNRAIFGVVPDASDIRGQGTMVTVSS | 0.964 nM | 405000 | 0.151 | 13800 |  |  |  |
| PR006247 (antibody, human IgG1, V domains shown, HCAb; human IgG1 Fc; no light chain) VH: QVQLVESGGGVVQPGMSLRLSCAASGFDFSSYGMYWVRQAPGKGQEWVASIRYTGTEKHYADSVKGRFTISRDNSKNTLYLEMNSLRVEDTAVYYCAKNRALFGVIPDASDIRGQGTMVTVSS | 1.01 nM | 410000 | 0.15 | 13400 |  |  |  |
| PR006246 (antibody, human IgG1, V domains shown, HCAb; human IgG1 Fc; no light chain) VH: QVQLVESGGGVVQPGMSLRLSCAASGFDFSSYGMYWVRQAPGKGQEWVASIRYTGTEKHYADSVKGRFTISRDNSKNTLYLEMNSLRVEDTAVYYCAKNRAIFGVIPDDSDIRGQGTMVTVSS | 0.764 nM | 396000 | 0.132 | 13700 |  |  |  |
| PR003379 (antibody, human IgG2, kappa, V domains shown, also called clone 18C4A12-1B1) VH: QVQLVQSGAEVKKPGASVKVSCKASGYTFAGYYMYWVRQAPGQGLEWMGWINPDSGAPTYAQKFQGRVTMTRDTSISTAYMELSRLRSDDTAVYYCAREKIYYGSGNYYPSFDYWGQGTLVTVSS VL: DIQLTQSPSFLSASVGDRVTITCRASQGISSYLAWYQQKPGKAPKLLIYAASTLQSGVPSRFSGSGSGTEFTLTISSLQPEDFATYYCQQLNSYPWTFGQGTKVEIKR |  |  |  |  | 0.0699 | 3700 | EC50, HEK293-hCD40-NFκB reporter, crosslinked (CHO-K1/hCD32B) (human CD40 [4]): 0.178 nM; EC50, HEK293-hCD40-NFκB reporter, uncrosslinked (CHO-K1) (human CD40 [4]): 0.369 nM; Fold (EC50 in the absence of crosslinking/EC50 in the presence of crosslinking) (human CD40 [4]): 2.07 fold |
| PR006495 (antibody, human IgG1, kappa, V domains shown, Variant of PR003379, L: N92A; human IgG1 L234A, L235A, G237A) VH: QVQLVQSGAEVKKPGASVKVSCKASGYTFAGYYMYWVRQAPGQGLEWMGWINPDSGAPTYAQKFQGRVTMTRDTSISTAYMELSRLRSDDTAVYYCAREKIYYGSGNYYPSFDYWGQGTLVTVSS VL: DIQLTQSPSFLSASVGDRVTITCRASQGISSYLAWYQQKPGKAPKLLIYAASTLQSGVPSRFSGSGSGTEFTLTISSLQPEDFATYYCQQLASYPWTFGQGTKVEIKR |  |  |  |  | 0.356 | 8870 | EC50, HEK293-hCD40-NFκB reporter, crosslinked (human CD40 [5]): 0.109 nM; EC50, HEK293-hCD40-NFκB reporter, uncrosslinked (human CD40 [5]): 0.905 nM; Fold (EC50 in the absence of crosslinking/EC50 in the presence of crosslinking) (human CD40 [5]): 8.28 fold; Maximum fold, HEK293-hCD40-NFκB reporter, crosslinked (human CD40 [5]): 5.54 fold; Maximum fold, HEK293-hCD40-NFκB reporter, uncrosslinked (human CD40 [5]): 4.92 fold |
| PR006496 (antibody, human IgG1, kappa, V domains shown, Variant of PR003379, L: N92F; human IgG1 L234A, L235A, G237A) VH: QVQLVQSGAEVKKPGASVKVSCKASGYTFAGYYMYWVRQAPGQGLEWMGWINPDSGAPTYAQKFQGRVTMTRDTSISTAYMELSRLRSDDTAVYYCAREKIYYGSGNYYPSFDYWGQGTLVTVSS VL: DIQLTQSPSFLSASVGDRVTITCRASQGISSYLAWYQQKPGKAPKLLIYAASTLQSGVPSRFSGSGSGTEFTLTISSLQPEDFATYYCQQLFSYPWTFGQGTKVEIKR |  |  |  |  | 0.277 | 9300 | EC50, HEK293-hCD40-NFκB reporter, crosslinked (human CD40 [5]): 0.217 nM; EC50, HEK293-hCD40-NFκB reporter, uncrosslinked (human CD40 [5]): 0.43 nM; Fold (EC50 in the absence of crosslinking/EC50 in the presence of crosslinking) (human CD40 [5]): 1.98 fold; Maximum fold, HEK293-hCD40-NFκB reporter, crosslinked (human CD40 [5]): 5.03 fold; Maximum fold, HEK293-hCD40-NFκB reporter, uncrosslinked (human CD40 [5]): 4.43 fold |
| PR006497 (antibody, human IgG1, kappa, V domains shown, Variant of PR003379, L: N92Y; human IgG1 L234A, L235A, G237A) VH: QVQLVQSGAEVKKPGASVKVSCKASGYTFAGYYMYWVRQAPGQGLEWMGWINPDSGAPTYAQKFQGRVTMTRDTSISTAYMELSRLRSDDTAVYYCAREKIYYGSGNYYPSFDYWGQGTLVTVSS VL: DIQLTQSPSFLSASVGDRVTITCRASQGISSYLAWYQQKPGKAPKLLIYAASTLQSGVPSRFSGSGSGTEFTLTISSLQPEDFATYYCQQLYSYPWTFGQGTKVEIKR |  |  |  |  | 0.252 | 9200 | EC50, HEK293-hCD40-NFκB reporter, crosslinked (human CD40 [5]): 0.158 nM; EC50, HEK293-hCD40-NFκB reporter, uncrosslinked (human CD40 [5]): 0.479 nM; Fold (EC50 in the absence of crosslinking/EC50 in the presence of crosslinking) (human CD40 [5]): 3.03 fold; Maximum fold, HEK293-hCD40-NFκB reporter, crosslinked (human CD40 [5]): 4.77 fold; Maximum fold, HEK293-hCD40-NFκB reporter, uncrosslinked (human CD40 [5]): 4.61 fold |
| PR006504 (antibody, human IgG1, kappa, V domains shown, Variant of PR003379, L: N92V; human IgG1 L234A, L235A, G237A) VH: QVQLVQSGAEVKKPGASVKVSCKASGYTFAGYYMYWVRQAPGQGLEWMGWINPDSGAPTYAQKFQGRVTMTRDTSISTAYMELSRLRSDDTAVYYCAREKIYYGSGNYYPSFDYWGQGTLVTVSS VL: DIQLTQSPSFLSASVGDRVTITCRASQGISSYLAWYQQKPGKAPKLLIYAASTLQSGVPSRFSGSGSGTEFTLTISSLQPEDFATYYCQQLVSYPWTFGQGTKVEIKR |  |  |  |  | 0.35 | 12200 |  |
| PR006511 (antibody, human IgG1, kappa, V domains shown, Variant of PR003379, L: S93N; human IgG1 L234A, L235A, G237A) VH: QVQLVQSGAEVKKPGASVKVSCKASGYTFAGYYMYWVRQAPGQGLEWMGWINPDSGAPTYAQKFQGRVTMTRDTSISTAYMELSRLRSDDTAVYYCAREKIYYGSGNYYPSFDYWGQGTLVTVSS VL: DIQLTQSPSFLSASVGDRVTITCRASQGISSYLAWYQQKPGKAPKLLIYAASTLQSGVPSRFSGSGSGTEFTLTISSLQPEDFATYYCQQLNNYPWTFGQGTKVEIKR |  |  |  |  | 0.386 | 11800 |  |
